{
  "source": "patent US7442684",
  "about": "(TRUSTEES OF COLUMBIA UNIVERSITY IN THE CITY OF NEW YORK, dated 2008)",
  "binders": {"B1": {"name": "β-hFSH-CTP-α-hFSH fusion protein (ligand)", "chain": "not shown", "modifications": "O-linked glycosylation on serines of the CTP linker; N-linked glycosylation on the FSH subunits (sites not numbered on this entry)", "notes": "Secreted from CHO cells; also called β-hFSH-CTP-α analogue; rFSH-CTP"}},
  "target": "T1, human FSH receptor (human, UniProt P23945 18-695)",
  "T1 construct": "whole, on cells; Expressed in Y-1 (Y1) cells. cAMP is the read-out; also called hFSH receptor; recombinant native hFSH receptor",
  "T1 sequence (looked up)": "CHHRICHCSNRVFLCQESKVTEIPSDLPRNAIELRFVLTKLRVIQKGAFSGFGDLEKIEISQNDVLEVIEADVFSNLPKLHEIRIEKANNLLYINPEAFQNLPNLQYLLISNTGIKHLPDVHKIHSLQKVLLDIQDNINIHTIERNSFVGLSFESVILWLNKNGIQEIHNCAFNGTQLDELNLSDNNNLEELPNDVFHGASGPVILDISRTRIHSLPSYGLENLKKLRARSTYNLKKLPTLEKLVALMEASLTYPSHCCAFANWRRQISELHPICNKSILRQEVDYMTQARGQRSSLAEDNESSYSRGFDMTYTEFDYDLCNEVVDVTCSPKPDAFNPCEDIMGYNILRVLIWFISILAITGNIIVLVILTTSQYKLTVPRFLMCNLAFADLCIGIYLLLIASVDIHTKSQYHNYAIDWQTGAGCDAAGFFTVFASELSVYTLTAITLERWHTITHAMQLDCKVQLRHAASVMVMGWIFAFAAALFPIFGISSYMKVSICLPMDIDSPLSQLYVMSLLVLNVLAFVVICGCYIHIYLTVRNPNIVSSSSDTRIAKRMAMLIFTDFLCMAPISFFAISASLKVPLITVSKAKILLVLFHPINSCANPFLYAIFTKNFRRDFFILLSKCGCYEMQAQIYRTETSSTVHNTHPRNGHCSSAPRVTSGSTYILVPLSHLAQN",
  "assay": "conclusion drawn from the cAMP assay on cells expressing the hFSH receptor; no direct binding assay",
  "procedure": "Bioactivity of the hFSH analogues was evaluated using Y-1 cells transfected with the FSH receptor. Y-1 cell cultures were mixed with the fusion protein and native pituitary hFSH (control) at varying concentrations and media was assayed for cAMP activity as described in Bouloux et al, 2001.\nFigure 8: FIG. 8: In vitro bioassay of hormone activity. cAMP concentration (fmol/ml) was quantitated in Y1 cells expressing the FSH receptor after treatment with the indicated amount of either pituitary FSH (pFSH) or the FSH analogue, β-hFSH-CTP-α-hFSH (rFSH-CTP).\nThe bioactivity of the β-hFSH-CTP-α analogue was first assessed by an assay of hFSH receptor activity. In this assay, a recombinant native hFSH receptor is expressed in a suitable host cell and cAMP induction is measured following incubation with hormone (Lindau-Shepard et al, 2001).",
  "data": [
    {"binder": "B1", "values": [
      {"measurement": "binding result", "result": "binds"}
    ]}
  ]
}
